# Test results published in patent US20230255880A1, “IMMOBILIZED ENZYME-BASED WOUND DEBRIDEMENT” (Guild Associates Inc., priority 2022, published 2023).
# Legend:
# Human keratinocytes = assay: Keratinocyte compatibility testing, resazurine-based assay; assay type: cell-based
# Procedure: (§1) Immobilized enzyme samples were further analyzed to determine if they have a detrimental effect on healthy tissue surrounding a burn wound. Human keratinocytes and fibroblasts obtained from ATCC, were seeded at cell densities of 2×10^4 in 24 well plates 6 days prior to experiments and incubated at 37° C. under 5% CO2. On day 7 a stock solution of 100 mg/mL an immobilized enzyme or natural enzyme is prepared in either PBS or a culture medium. Cells were treated with 500 μL of the enzyme solution, at several dilutions, for up to 6 hours. At the end of the test, the enzyme solution is removed, cells were washed twice with PBS, and 500 μL of the appropriate cultivation media is added. The effect of the different concentrations of enzyme on the cells is assessed using a resazurine-based assay and life cell imaging. In this case the fluorescence signal is proportional to the amount of vital cells. All enzyme concentrations were measured in triplicate (n=3). The enzyme containing fluid removed after 6 hours of exposure to cells is evaluated using the methods described above for enzymatic activity. Data determined above is used to compensate for autolytic degradation in test samples.
# casein = assay: pH stability and autolytic resistance, 6 hours at 37° C. in phosphate buffer; assay type: physicochemical; details: for Retained activity after 6 hours of exposure: phosphate buffer, average of 5 ± standard error
# Procedure: Natural (non-immobilized) and immobilized forms of each enzyme were loaded into 10 mL of phosphate buffer solutions at pH 7.0, 6.0, and 5.0 and mixed for 6 hours at 37° C. These pH values were selected as representative of the range of pH of intact to wounded skin. The amount of natural or immobilized enzyme material that was added at the start of the test was based on its measured activity, so that all tests started with similar enzyme activities for each enzyme: 2.6 U bromelain, 21 U collagenase, and 5.4 U trypsin. Retained activity was determined by taking a sample of the test solution at a given time point and evaluating it against casein. The measured activity of the test sample was divided by the activity measured at the start of the test and is presented as the average of 5 measurements±standard error, Table 2.
# [1] = Diffusion through Strat-M membranes in Franz cell (in vitro dermal compatibility); assay type: in vitro ADME; details: after 6 hours, averaged across all tests, 37° C., PBS pH 7.4
# Text: Strat-M™ membranes (EMD Millipore) were selected and for testing diffusion of the immobilized enzyme through healthy skin. Strat-M is a synthetic polymeric membrane designed to simulate the properties of human skin for transdermal diffusion. The membrane is composed of multiple polyether sulfone layers with a tightly packed surface layer to create a morphology that resembles human skin. The advantage of this material is that it provides a more predictive result, since it has less variability between samples, and is not as limited to storage conditions, safety considerations, and sample availability.
# Franz cells with 5 mL receptor volumes were filled with filtered 10 mM PBS buffer at pH 7.4 and held at 37° C. Strat-M membranes were placed on the receptor, covered with 0.3 mL of buffer, and the system was allowed to equilibrate with the receptor fluid for at least 30 minutes. After equilibration 0.5 mL of solutions containing 20-100 mg/mL of natural enzyme, immobilized enzyme, or BSA as a control were added to the top of the Franz cell and the cell was covered. 0.5 mL samples were taken hourly (replacing the volume with fresh PBS buffer each time) for the first 6 hours and a final sample at 24 hours. The protein concentration in each sample was evaluated using a Bradford assay and a 660 nm protein concentration assay from Pierce. The enzyme activity of the 24-hour samples was evaluated to determine if active enzyme or just peptides had passed through the membrane.
# Human fibroblasts = assay: Fibroblast compatibility study, resazurine-based assay; assay type: cell-based; details: all tested concentrations
# Procedure: as §1
Substance,Relative signal (Human keratinocytes; all tested concentrations),"Retained activity after 6 hours of exposure (casein; pH 5, 37° C.)","Retained activity after 6 hours of exposure (casein; pH 6, 37° C.)",Loss of starting activity after 6 hours (casein; pH 7),"Retained activity after 6 hours of exposure (casein; pH 7, 37° C.)",Amount of protein passing through Strat-M membranes [1],Relative signal (cell growth) (Human fibroblasts),Loss of initial activity within 6 hours (casein; all pH tested),Highest relative signal (Human keratinocytes; 40 mg/mL),"Retained activity after 6 hours of exposure (casein; pH 5, 37° C., listed as bromelain Natural)"
trypsin,around 1,43.3% ± 1.1%,46.1% ± 1.2%,92%,7.7% ± 5.3%,11.93 ± 0.50 mg,almost no change to cell growth,–,–,–
collagenase,–,12.3% ± 4.5%,18.9% ± 1.3%,–,13.9% ± 3.3%,18.15 ± 0.81 mg,~1,80-90%,–,–
bromelain,–,–,36.1% ± 1.4%,–,64.7% ± 3.0%,2.08 ± 0.25 mg,–,–,6.71,95.6% ± 4.9%
